Assays:
[1] = molecular target: T1, cynomolgus monkey FXI (in pooled cynomolgus monkey plasma) (cynomolgus monkey, UniProt A0A2K5VVW4 19-624); test: cell-based or functional assay
[2] = molecular target: T1, cynomolgus monkey FXI (in pooled …); test: cell-based or functional assay; remark: listed apart in the source
[3] = molecular target: recombinant rabbit FXI with C-terminal myc-myc-hexahistidine tag (rbFXI.mmH) (rabbit, UniProt G1SSQ6 19-623); test: SPR, REGN9933 surface-captured, mmH-tagged protein injected, 25°C, pH 7.4, 1:1 steady-state model
[4] = molecular target: recombinant mouse FXI with C-terminal myc-myc-hexahistidine tag (mFXI.mmH) (mouse, UniProt Q91Y47 19-624, limits assumed); test: SPR, REGN9933 surface-captured, 25°C, pH 7.4

- concentration at which aPTT doubles relative to baseline, pooled cynomolgus monkey plasma [1]: 1.1 µM
- Fold Increase in Clotting Time (aPTT w/EA), maximum change, monkey plasma [2]: 2.1 fold
- TGA % ETP (induced w/EA), relative to baseline, monkey plasma [2]: 66%
- TGA % Peak Thrombin (induced w/EA), relative to baseline, monkey plasma [2]: 43%
- TGA Fold Increase in Lag Time (induced w/EA), maximum change, monkey plasma [2]: 2.2 fold
- Kd [3]: 171 nM
- binding result [4]: no binding (tested: 50 nM)
B1: REGN9933 (antibody, human IgG4 S228P, kappa, V domains shown)
VH: EVQLVESGGGLVQPGGSLRLSCAASGFTFSNYAMNWVRQAPGKGLDWVSFIRSGGDTTYYADSVKGRFTISRDNSKNTLYLQMNSLRAEDTAVYYCAKVHPYTWDYGDAFDIWGQGTMVTVSS
VL: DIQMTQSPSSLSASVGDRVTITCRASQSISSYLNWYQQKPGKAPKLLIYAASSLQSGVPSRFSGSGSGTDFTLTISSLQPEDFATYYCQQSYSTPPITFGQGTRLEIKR
notes: Fully human; hinge-stabilized IgG4 (IgG4P) Fc; also called H4H29790P2; subject anti-FXI mAb

From patent US20230131338A1 (Regeneron, published 2023)
